In US20230416330A1, “Optimized GIP Peptide Analogues” (Antag Therapeutics ApS, priority 2019, published 2023):
No end group written: not given here. *: point of attachment. C16 diacid = O=C(O)CCCCCCCCCCCCCCC(=O)*

T1: human GIP receptor (human, UniProt P48546 22-466)
T1 sequence (looked up): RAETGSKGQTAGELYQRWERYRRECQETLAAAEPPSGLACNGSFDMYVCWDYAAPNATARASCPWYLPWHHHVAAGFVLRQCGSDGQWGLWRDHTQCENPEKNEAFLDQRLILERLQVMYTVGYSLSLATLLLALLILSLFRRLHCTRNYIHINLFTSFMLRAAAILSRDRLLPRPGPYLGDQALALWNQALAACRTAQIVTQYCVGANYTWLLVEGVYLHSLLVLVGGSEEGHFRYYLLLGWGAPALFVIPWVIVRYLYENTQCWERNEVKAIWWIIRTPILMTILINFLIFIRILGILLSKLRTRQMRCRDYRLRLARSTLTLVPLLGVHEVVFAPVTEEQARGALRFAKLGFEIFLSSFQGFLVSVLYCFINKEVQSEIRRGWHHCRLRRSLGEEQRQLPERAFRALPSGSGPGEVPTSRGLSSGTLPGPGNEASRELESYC

B1: AT745 (peptide)
peptide: EGTFISDYSIAMDKIK(C16 diacid)QQAFVEWLLAQKPSSGAPPPS-OH
modifications: N-terminus assumed
SMILES: CC[C@H](C)[C@H](NC(=O)[C@H](CO)NC(=O)[C@H](Cc1ccc(O)cc1)NC(=O)[C@H](CC(=O)O)NC(=O)[C@H](CO)NC(=O)[C@@H](NC(=O)[C@H](Cc1ccccc1)NC(=O)[C@@H](NC(=O)CNC(=O)[C@@H](N)CCC(=O)O)[C@@H](C)O)[C@@H](C)CC)C(=O)N[C@@H](C)C(=O)N[C@@H](CCSC)C(=O)N[C@@H](CC(=O)O)C(=O)N[C@@H](CCCCN)C(=O)N[C@H](C(=O)N[C@@H](CCCCNC(=O)CCCCCCCCCCCCCCC(=O)O)C(=O)N[C@@H](CCC(N)=O)C(=O)N[C@@H](CCC(N)=O)C(=O)N[C@@H](C)C(=O)N[C@@H](Cc1ccccc1)C(=O)N[C@H](C(=O)N[C@@H](CCC(=O)O)C(=O)N[C@@H](Cc1c[nH]c2ccccc12)C(=O)N[C@@H](CC(C)C)C(=O)N[C@@H](CC(C)C)C(=O)N[C@@H](C)C(=O)N[C@@H](CCC(N)=O)C(=O)N[C@@H](CCCCN)C(=O)N1CCC[C@H]1C(=O)N[C@@H](CO)C(=O)N[C@@H](CO)C(=O)NCC(=O)N[C@@H](C)C(=O)N1CCC[C@H]1C(=O)N1CCC[C@H]1C(=O)N1CCC[C@H]1C(=O)N[C@@H](CO)C(=O)O)C(C)C)[C@@H](C)CC
B2: AT747 (peptide)
peptide: EGTFISDYSIAMDKIK(C16 diacid)QQDFVEWLLAEKPSSGAPPPS-OH
modifications: N-terminus assumed
SMILES: CC[C@H](C)[C@H](NC(=O)[C@H](CO)NC(=O)[C@H](Cc1ccc(O)cc1)NC(=O)[C@H](CC(=O)O)NC(=O)[C@H](CO)NC(=O)[C@@H](NC(=O)[C@H](Cc1ccccc1)NC(=O)[C@@H](NC(=O)CNC(=O)[C@@H](N)CCC(=O)O)[C@@H](C)O)[C@@H](C)CC)C(=O)N[C@@H](C)C(=O)N[C@@H](CCSC)C(=O)N[C@@H](CC(=O)O)C(=O)N[C@@H](CCCCN)C(=O)N[C@H](C(=O)N[C@@H](CCCCNC(=O)CCCCCCCCCCCCCCC(=O)O)C(=O)N[C@@H](CCC(N)=O)C(=O)N[C@@H](CCC(N)=O)C(=O)N[C@@H](CC(=O)O)C(=O)N[C@@H](Cc1ccccc1)C(=O)N[C@H](C(=O)N[C@@H](CCC(=O)O)C(=O)N[C@@H](Cc1c[nH]c2ccccc12)C(=O)N[C@@H](CC(C)C)C(=O)N[C@@H](CC(C)C)C(=O)N[C@@H](C)C(=O)N[C@@H](CCC(=O)O)C(=O)N[C@@H](CCCCN)C(=O)N1CCC[C@H]1C(=O)N[C@@H](CO)C(=O)N[C@@H](CO)C(=O)NCC(=O)N[C@@H](C)C(=O)N1CCC[C@H]1C(=O)N1CCC[C@H]1C(=O)N1CCC[C@H]1C(=O)N[C@@H](CO)C(=O)O)C(C)C)[C@@H](C)CC
B3: AT748 (peptide)
peptide: EGTFISDYSIAMDAIK(C16 diacid)QQDFVEWLLAQKPSSGAPPPS-OH
modifications: N-terminus assumed
SMILES: CC[C@H](C)[C@H](NC(=O)[C@H](C)NC(=O)[C@H](CC(=O)O)NC(=O)[C@H](CCSC)NC(=O)[C@H](C)NC(=O)[C@@H](NC(=O)[C@H](CO)NC(=O)[C@H](Cc1ccc(O)cc1)NC(=O)[C@H](CC(=O)O)NC(=O)[C@H](CO)NC(=O)[C@@H](NC(=O)[C@H](Cc1ccccc1)NC(=O)[C@@H](NC(=O)CNC(=O)[C@@H](N)CCC(=O)O)[C@@H](C)O)[C@@H](C)CC)[C@@H](C)CC)C(=O)N[C@@H](CCCCNC(=O)CCCCCCCCCCCCCCC(=O)O)C(=O)N[C@@H](CCC(N)=O)C(=O)N[C@@H](CCC(N)=O)C(=O)N[C@@H](CC(=O)O)C(=O)N[C@@H](Cc1ccccc1)C(=O)N[C@H](C(=O)N[C@@H](CCC(=O)O)C(=O)N[C@@H](Cc1c[nH]c2ccccc12)C(=O)N[C@@H](CC(C)C)C(=O)N[C@@H](CC(C)C)C(=O)N[C@@H](C)C(=O)N[C@@H](CCC(N)=O)C(=O)N[C@@H](CCCCN)C(=O)N1CCC[C@H]1C(=O)N[C@@H](CO)C(=O)N[C@@H](CO)C(=O)NCC(=O)N[C@@H](C)C(=O)N1CCC[C@H]1C(=O)N1CCC[C@H]1C(=O)N1CCC[C@H]1C(=O)N[C@@H](CO)C(=O)O)C(C)C
B4: AT742 (peptide)
peptide: EGTFISDYSIAMDKK(C16 diacid)HQQDFVEWLLAQKPSSGAPPPS-OH
modifications: N-terminus assumed
SMILES: CC[C@H](C)[C@H](NC(=O)[C@H](CO)NC(=O)[C@H](Cc1ccc(O)cc1)NC(=O)[C@H](CC(=O)O)NC(=O)[C@H](CO)NC(=O)[C@@H](NC(=O)[C@H](Cc1ccccc1)NC(=O)[C@@H](NC(=O)CNC(=O)[C@@H](N)CCC(=O)O)[C@@H](C)O)[C@@H](C)CC)C(=O)N[C@@H](C)C(=O)N[C@@H](CCSC)C(=O)N[C@@H](CC(=O)O)C(=O)N[C@@H](CCCCN)C(=O)N[C@@H](CCCCNC(=O)CCCCCCCCCCCCCCC(=O)O)C(=O)N[C@@H](Cc1c[nH]cn1)C(=O)N[C@@H](CCC(N)=O)C(=O)N[C@@H](CCC(N)=O)C(=O)N[C@@H](CC(=O)O)C(=O)N[C@@H](Cc1ccccc1)C(=O)N[C@H](C(=O)N[C@@H](CCC(=O)O)C(=O)N[C@@H](Cc1c[nH]c2ccccc12)C(=O)N[C@@H](CC(C)C)C(=O)N[C@@H](CC(C)C)C(=O)N[C@@H](C)C(=O)N[C@@H](CCC(N)=O)C(=O)N[C@@H](CCCCN)C(=O)N1CCC[C@H]1C(=O)N[C@@H](CO)C(=O)N[C@@H](CO)C(=O)NCC(=O)N[C@@H](C)C(=O)N1CCC[C@H]1C(=O)N1CCC[C@H]1C(=O)N1CCC[C@H]1C(=O)N[C@@H](CO)C(=O)O)C(C)C
B5: AT746 (peptide)
peptide: EGTFISDYAIAMDKIK(C16 diacid)QQDFVEWLLAQKPSSGAPPPS-OH
modifications: N-terminus assumed
SMILES: CC[C@H](C)[C@H](NC(=O)[C@H](C)NC(=O)[C@H](Cc1ccc(O)cc1)NC(=O)[C@H](CC(=O)O)NC(=O)[C@H](CO)NC(=O)[C@@H](NC(=O)[C@H](Cc1ccccc1)NC(=O)[C@@H](NC(=O)CNC(=O)[C@@H](N)CCC(=O)O)[C@@H](C)O)[C@@H](C)CC)C(=O)N[C@@H](C)C(=O)N[C@@H](CCSC)C(=O)N[C@@H](CC(=O)O)C(=O)N[C@@H](CCCCN)C(=O)N[C@H](C(=O)N[C@@H](CCCCNC(=O)CCCCCCCCCCCCCCC(=O)O)C(=O)N[C@@H](CCC(N)=O)C(=O)N[C@@H](CCC(N)=O)C(=O)N[C@@H](CC(=O)O)C(=O)N[C@@H](Cc1ccccc1)C(=O)N[C@H](C(=O)N[C@@H](CCC(=O)O)C(=O)N[C@@H](Cc1c[nH]c2ccccc12)C(=O)N[C@@H](CC(C)C)C(=O)N[C@@H](CC(C)C)C(=O)N[C@@H](C)C(=O)N[C@@H](CCC(N)=O)C(=O)N[C@@H](CCCCN)C(=O)N1CCC[C@H]1C(=O)N[C@@H](CO)C(=O)N[C@@H](CO)C(=O)NCC(=O)N[C@@H](C)C(=O)N1CCC[C@H]1C(=O)N1CCC[C@H]1C(=O)N1CCC[C@H]1C(=O)N[C@@H](CO)C(=O)O)C(C)C)[C@@H](C)CC
B6: AT744 (peptide)
peptide: EGTFISDYSIAMDKIHQQDFVEWLLAQKPSSGAPPPSK(C16 diacid)-OH
modifications: N-terminus assumed
SMILES: CC[C@H](C)[C@H](NC(=O)[C@H](CO)NC(=O)[C@H](Cc1ccc(O)cc1)NC(=O)[C@H](CC(=O)O)NC(=O)[C@H](CO)NC(=O)[C@@H](NC(=O)[C@H](Cc1ccccc1)NC(=O)[C@@H](NC(=O)CNC(=O)[C@@H](N)CCC(=O)O)[C@@H](C)O)[C@@H](C)CC)C(=O)N[C@@H](C)C(=O)N[C@@H](CCSC)C(=O)N[C@@H](CC(=O)O)C(=O)N[C@@H](CCCCN)C(=O)N[C@H](C(=O)N[C@@H](Cc1c[nH]cn1)C(=O)N[C@@H](CCC(N)=O)C(=O)N[C@@H](CCC(N)=O)C(=O)N[C@@H](CC(=O)O)C(=O)N[C@@H](Cc1ccccc1)C(=O)N[C@H](C(=O)N[C@@H](CCC(=O)O)C(=O)N[C@@H](Cc1c[nH]c2ccccc12)C(=O)N[C@@H](CC(C)C)C(=O)N[C@@H](CC(C)C)C(=O)N[C@@H](C)C(=O)N[C@@H](CCC(N)=O)C(=O)N[C@@H](CCCCN)C(=O)N1CCC[C@H]1C(=O)N[C@@H](CO)C(=O)N[C@@H](CO)C(=O)NCC(=O)N[C@@H](C)C(=O)N1CCC[C@H]1C(=O)N1CCC[C@H]1C(=O)N1CCC[C@H]1C(=O)N[C@@H](CO)C(=O)N[C@@H](CCCCNC(=O)CCCCCCCCCCCCCCC(=O)O)C(=O)O)C(C)C)[C@@H](C)CC
B7: AT741 (peptide)
peptide: EGTFISDYSIAMDK(C16 diacid)IHQQDFVEWLLAQKPSSGAPPPS-OH
modifications: N-terminus assumed
SMILES: CC[C@H](C)[C@H](NC(=O)[C@H](CO)NC(=O)[C@H](Cc1ccc(O)cc1)NC(=O)[C@H](CC(=O)O)NC(=O)[C@H](CO)NC(=O)[C@@H](NC(=O)[C@H](Cc1ccccc1)NC(=O)[C@@H](NC(=O)CNC(=O)[C@@H](N)CCC(=O)O)[C@@H](C)O)[C@@H](C)CC)C(=O)N[C@@H](C)C(=O)N[C@@H](CCSC)C(=O)N[C@@H](CC(=O)O)C(=O)N[C@@H](CCCCNC(=O)CCCCCCCCCCCCCCC(=O)O)C(=O)N[C@H](C(=O)N[C@@H](Cc1c[nH]cn1)C(=O)N[C@@H](CCC(N)=O)C(=O)N[C@@H](CCC(N)=O)C(=O)N[C@@H](CC(=O)O)C(=O)N[C@@H](Cc1ccccc1)C(=O)N[C@H](C(=O)N[C@@H](CCC(=O)O)C(=O)N[C@@H](Cc1c[nH]c2ccccc12)C(=O)N[C@@H](CC(C)C)C(=O)N[C@@H](CC(C)C)C(=O)N[C@@H](C)C(=O)N[C@@H](CCC(N)=O)C(=O)N[C@@H](CCCCN)C(=O)N1CCC[C@H]1C(=O)N[C@@H](CO)C(=O)N[C@@H](CO)C(=O)NCC(=O)N[C@@H](C)C(=O)N1CCC[C@H]1C(=O)N1CCC[C@H]1C(=O)N1CCC[C@H]1C(=O)N[C@@H](CO)C(=O)O)C(C)C)[C@@H](C)CC

Target: T1, human GIP receptor
Experiment: cell-based or functional assay

Binder | nM (Kb, Gaddum assay, cAMP) | pKb (Gaddum assay, cAMP)
B1 | 0.49 nM | 9.3
B2 | 14 nM | 7.9
B3 | 0.42 nM | 9.4
B4 | 32 nM | 7.5
B5 | 0.97 nM | 9
B6 | 4.8 nM | 8.3
B7 | 11 nM | 7.9
